Data set [1] deals with thrombin (UniProt P00734). Nature of the data set: cell-based or functional assay.
For data set [2], the target named is T1, Factor XIa (FXIa) (UniProt P03951;P03951 P03951:19-387,P03951:388-625). Put plainly: SPR; ±0.1 nM; ka 5.2e4 M-1s-1, kd 9.5e-5 s-1; 100 mM HEPES pH 7.4, 150 mM NaCl, 0.01% Tween 20, 25 C; SCRAPT reference cell subtracted. Particulars: chain copies: 2,2; label: 3'-biotin; predicted stem-loop hairpin with bulge and two small loops. Here is the method: Kinetic measurements of aptamer binding were analyzed by SPR on a Biacore T200 (GE Healthcare). To immobilize the aptamer, a CM5 sensor chip (GE Healthcare) was activated with a 0.2 M N-ethyl-N′-(dimethylamino-propyl) carbodiimide (EDC) and 0.05 M N-hydroxysuccinimide (NHS) (Sigma) solution, followed by binding of streptavidin (0.2 mg/ml, pH 4.5). FELIAP and SCRAPT (3′ biotinylated) in 100 mM HEPES (pH 7.4), 150 mM NaCl, 0.01% Tween 20 were immobilized on the streptavidin-coated chips at a flow rate of 10 μL/min to 100 response units (RU). Flow cells were regenerated with 0.2% SDS (w/vol). FXIa at concentrations varying from 15.671 nM to 500 nM was injected at a flow rate of 50 μl/min for 180 s to monitor association, and HEPES buffer for 1800 s to monitor dissociation. The signal from the SCRAPT-immobilized flow cell was used as a reference and subtracted from the signal arising from FXIa binding to the FELIAP-immobilized cell. Binding of FXIa and aptamer was quantified by global analysis of on and off rates using the Langmuir 1:1 binding model, as determined with the instrument's software provided by the manufacturer (Biacore). All experiments were done in triplicate.
T1 sequence (P03951 19-387, chain 1 of 2): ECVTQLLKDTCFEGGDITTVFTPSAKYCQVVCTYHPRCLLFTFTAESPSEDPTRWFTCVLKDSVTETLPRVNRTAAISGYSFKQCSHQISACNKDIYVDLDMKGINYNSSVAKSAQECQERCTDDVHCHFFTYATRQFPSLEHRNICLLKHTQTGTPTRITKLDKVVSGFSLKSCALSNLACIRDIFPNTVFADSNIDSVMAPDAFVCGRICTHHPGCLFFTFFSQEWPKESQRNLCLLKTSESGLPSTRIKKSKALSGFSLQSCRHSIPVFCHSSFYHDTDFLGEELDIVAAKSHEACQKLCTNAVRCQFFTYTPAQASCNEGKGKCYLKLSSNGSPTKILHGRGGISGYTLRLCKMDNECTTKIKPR
T1 sequence (P03951 388-625, chain 2 of 2): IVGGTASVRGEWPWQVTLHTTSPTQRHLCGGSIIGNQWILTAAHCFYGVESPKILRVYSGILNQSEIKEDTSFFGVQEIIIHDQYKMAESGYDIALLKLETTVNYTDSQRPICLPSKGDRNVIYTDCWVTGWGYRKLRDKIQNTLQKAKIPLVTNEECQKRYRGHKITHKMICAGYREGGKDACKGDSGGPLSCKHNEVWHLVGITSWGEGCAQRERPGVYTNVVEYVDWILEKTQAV

The target of data set [3] is T1, Factor XIa (FXIa). Put plainly: inhibition; competitive inhibition of S2366 amidolysis; PPNE pH 7.4, 37 C. The following applies: chain copies: 2,2; predicted stem-loop hairpin with bulge and two small loops. As to the method: The mode of inhibition of FELIAP was investigated by fixing the concentrations of chromogenic substrate and FXIa and increasing the concentration of FELIAP and measuring the rate of substrate cleavage. A dose-dependent reduction in the reaction rate was observed as FELIAP was increased from 0 to 20 μM, while the same concentrations of SCRAPT had no inhibitory effect (FIG. 2A). Next, the concentration of chromogenic substrate S2366 was varied while keeping FXIa constant at different concentrations of FELIAP (FIG. 2B).

What is called Kd is the concentration at which binding is half-saturated. As a reminder, the Ki is the dissociation constant of the complex between target and ligand, obtained from inhibition or displacement.

In the case of “recombinant His-tagged hirudin variant 3”, the thrombin generation assay, FXI-depleted plasma with tissue factor: time to peak thrombin in data set [1] was 3.1 fold.

B1: FELIAP 3'-biotin (ssDNA)
DNA: GAATTCTAATACGACTCACTATAAACCTATCGGACTATTGTTAGTGATTTTTATAGTGTGCGTCCAACACATCG
Consider B1, for which the Kd in data set [2] was 0.0018 µM.

B2: FELIAP (Apt10-10) (ssDNA)
DNA: B1 DNA
Take B2: the Ki in data set [3] is 29 µM.
